# Source: CN116063506A (HUADAO SHANGHAI BIOMEDICAL CO LTD, dated 2023)
# B1: 分离的抗体(标记为CD4-14) (antibody, V domains shown)
# VH: QVQLVQSGPELKKPGASVKVSCKASGYTFTDYVIHWVKQATGQGLEWIGEIYPGSGSAYSNAKFKDRVTMTADKSSNTAYMELSSLTSDDTAVYFCARRGNGTGFAYWGQGTLVTVSS
# VL: DIVLTQSPASLAVSLGQRATITCKAGQSVDYDGDSYMNWYQQKPGQPPKLLIYVASNLESGIPARFSGSGSGTDFTLNIHPVEENDAATYYCQQSYKDPLTFGQGTKLEIK
# notes: also called 分离抗体; 本发明的分离抗体
# Biological target: T1, CD4抗原 (表面抗原分化簇4, Cluster of Differentiation 4) (UniProt P01730 26-458, limits assumed)
# T1 construct: whole, on cells; also called 细胞表面的CD4抗原; Nalm6-CD4
# Assay: flow cytometry on Nalm6-CD4 cells; antibody from 4 μg/mL in 4-fold dilutions, 10 concentrations; APC goat anti-mouse IgG secondary
binder,measurement,value
B1,EC50,0.152 µg/mL
